In patent publication US7264809B1, “Methods of inhibiting platelet activation and recruitment” (Immunex Corporation, priority 1998, dated 2007):

Assays:
[1] = Murine model of stroke (middle cerebral artery occlusion); format: in vivo, mice
Description: Anesthetized mice were maintained at 37±2° C. during and for 90 min following surgery. A midline neck incision was made and the right carotid artery exposed. Middle cerebral artery occlusion was accomplished by advancing a 13-mm heat-blunt tipped 6-0 nylon suture via an arteriotomy in the external carotid stump. The external carotid artery was cauterized to secure hemostasis, and arterial flow reestablished. […] Surgical staples were used for wound closure. […]

[2] = TLC assay for ADPase activity; format: biochemical
Description: (§1) Following growth in selective medium, CM from CHO cell cultures was analyzed for ATPase and ADPase activities. ADPase assays (Marcus et al., J. Clin. Invest. 88:1690, 1991) were primarily used in determining enzyme kinetics and pharmacokinetics. Test samples were incubated with 50 μM [^14C] ADP (NEN Life Science Products) in assay buffer (15 mM Tris, 134 mM NaCl, 5 mM glucose, pH 7.4, containing 10 μM Ap5A (P^1,P^5-di[adenosine-5′]pentaphosphate, 1 mM ouabain, 10 μM dipyridamole, and 3 mM CaCl2) in a total volume of 50 μl (5 min, 37° C.). Reactions were stopped by placement on ice and addition of 10 μl “stop solution” (160 mM disodium EDTA, pH 7.0, 17 mM ADP, 0.15 M NaCl) to block further metabolism of ADP. Nucleotides, nucleosides, and bases were separated by TLC using isobutanol/1-pentanol/ethylene glycol monoethyl ether/NH4OH/H2O (90:60:180:90:120). Radioactivity was quantified by radio TLC scanning (RTLC multiscanner; Packard, Meriden, Conn.). Results were calculated as averages of duplicate to quadruplicate measurements after subtraction of buffer blanks (consistently <1% of total radioactivity). Data were expressed as percentage of ADP metabolized or as pmol ADP metabolized per minute per μl CM. A unit of activity is the quantity of enzyme which will degrade 1 μmol of ADP in 1 min at 37° C. Identical assays were performed using ATP as a substrate in order to examine the kinetics of the ATPase activity of CD39.
(§2) Using the TLC assay system described in Example 12B, the ADPase activity of the membrane-bound HUVEC ecto-ADPase was determined at different pHs in buffers containing 100 mM bis-trispropane (Sigma, St. Louis, Mo.). […] Kinetic constants for CD39 metabolism of ATP and ADP were determined by measuring the initial rates of reaction as analyzed in the TLC system.

[3] = TLC assay for ATPase activity; format: biochemical
Description: as §1, §2

[4] = system: platelets; test: Ex vivo additive inhibition of platelet aggregation in patient platelet rich plasma; format: cell-based, human
[5] = system: murine platelets; test: Ex vivo aggregation of murine platelets; format: in vivo, C57BL/6J mice; conditions: PRP 1 hour after soluble CD39 4 mg/kg or aspirin 5 mg/kg
Description: C57BL/6J mice (6-8 wk) were obtained from Jackson Laboratories (Bar Harbor, Me.). […] 80 μL of 3.8% trisodium citrate was added to each mL of blood. […] The PRP contained 400-700×10^3 platelets per μL. All experiments were completed within 2 hours of blood collection. PRP (200 μL) was preincubated, for 3 min. at 37° C., with 100 μL Tris-buffered saline buffer ([…], 5 mM glucose, pH 7.4) in an aggregometer cuvette (Lumiaggregometer; Chrono-Log, Havertown, Pa.), and the platelet agonists ADP, collagen, or sodium arachidonate were added at the final concentrations indicated.

[6] = set-up: species or system Balb/c mice; conditions: mouse, in vivo, iv
Description: At various times after injection (5, 10, 30 min, 1, 2, 4, 8, 24 h), pairs of mice were bled by cardiac puncture and euthanized. Serum was prepared from each blood sample and frozen until assay. […] The data were fit using […], Monterey, Calif.). The best fit was derived using double exponential decay. Where indicated, specificity of enzyme activity was determined by incubating serum samples with anti-CD39 mAb-coated beads to remove CD39 prior to testing for ATPase activity.

[7] = system: platelets; test: Platelet aggregation in human platelet-rich plasma; format: cell-based
Description: After obtaining informed consent from volunteers, blood was collected via plastic tubing using acid citrate-dextrose (38 mM citric acid; 75 mM sodium citrate; 135 mM glucose) as anticoagulant. Where indicated, volunteers had ingested 650 mg acetylsalicylic acid (ASA) 18 h prior to blood donation. […] The stock suspension of PRP was maintained at room temperature under 5% CO2-air. […] Total volumes were adjusted to 300 μl with TSG buffer (Marcus et al., J. Clin. Invest. 88:1690, 1991; Marcus et al., J. Clin. Invest. 99:1351, 1997). […] A mock-treated sample was also prepared in which the FSBA solution was replaced with water. After incubating at 37° for 90 min., the samples were centrifuged in a Centricon-10 filter unit (Amicon Corp.) for 1 hour at 5,500 rpm and buffer exchanged into PBS to remove unreacted material.

[8] = administered three hours following stroke induction
[9] = prior to, or up to 3 h following, stroke

B1: solCD39: recombinant soluble human CD39, untagged: 12 mature huIL2 residues, three amino acid linker, sol CD39 (SEQ ID NO:7) (protein)
chain: MALWIDRMQLLSCIALSLALVTNSAPTSSSTKKTQLTSSTQNKALPENVKYGIVLDAGSSHTSLYIYKWPAEKENDTGVVHQVEECRVKGPGISKFVQKVNEIGIYLTDCMERAREVIPRSQHQETPVYLGATAGMRLLRMESEELADRVLDVVERSLSNYPFDFQGARIITGQEEGAYGWITINYLLGKFSQKTRWFSIVPYETNNQETFGALDLGGASTQVTFVPQNQTIESPDNALQFRLYGKDYNVYTHSFLCYGKDQALWQKLAKDIQVASNEILRDPCFHPGYKKVVNVSDLYKTPCTKRFEMTLPFQQFEIQGIGNYQQCHQSILELFNTSYCPYSQCAFNGIFLPPLQGDFGAFSAFYFVMKFLNLTSEKVSQEKVTEMMKKFCAQPWEEIKTSYAGVKEKYLSEYCFSGTYILSLLLQGYHFTADSWEHIHFIGKIQGSDAGWTLGYMLNLTNMIPAEQPLSTPLSHST
fibrin accumulation in the ipsilateral hemisphere ([1]; 8 mg/kg, Western blot): decreased
postischemic cerebral perfusion / blood flow ([1]; 24 hours after stroke induction): improved
infarction volume [1, 8]: reduced
postischemic blood flow [1, 8]: restored
intracerebral hemorrhage ([1]; following stroke, spectrophotometric): no significant increase
cerebral infarct volume ([1]; preoperative administration, aspirin 5 mg/kg): dose-dependent diminution
platelet accumulation in the ipsilateral cerebral hemisphere ([1]; pretreated with 8 mg/kg i.v.): inhibited
mortality [1, 9]: reduced
neurological deficit [1, 9]: reduced
infarct volume in CD39−/− mice ([1]; reconstituted CD39−/− mice): markedly diminished
Vmax for ADP ([2]; 2×10^−9 M solCD39): 72 pmol/min
kcat (ADP) ([2]; 2×10^−9 M solCD39): 12 s⁻¹
specific activity for ADP ([2]; purified recombinant solCD39): 11 U/mg
Vmax for ATP ([3]; 2×10^−9 M solCD39): 26 pmol/min
kcat (ATP) ([3]; 2×10^−9 M solCD39): 4.33 s⁻¹
specific activity for ATP ([3]; purified recombinant solCD39): 4 U/mg
Platelet aggregation ([4]; SolCD39 10 μg/ml, ADP, Abciximab group): 0 ± 0 arbitrary units
Platelet aggregation ([4]; SolCD39 10 μg/ml, ADP, Aspirin group): 4 ± 2 arbitrary units
Platelet aggregation ([4]; SolCD39 10 μg/ml, ADP, Clopidogrel group): 5 ± 2 arbitrary units
Platelet aggregation ([4]; SolCD39 10 μg/ml, ADP, Placebo group): 0 ± 0 arbitrary units
Platelet aggregation ([4]; SolCD39 10 μg/ml, ADP, Ticlopidine group): 10 ± 2 arbitrary units
Platelet aggregation ([4]; SolCD39 10 μg/ml, Collagen, Abciximab group): 0 ± 0 arbitrary units
Platelet aggregation ([4]; SolCD39 10 μg/ml, Collagen, Aspirin group): 21 ± 4 arbitrary units
Platelet aggregation ([4]; SolCD39 10 μg/ml, Collagen, Clopidogrel group): 31 ± 9 arbitrary units
Platelet aggregation ([4]; SolCD39 10 μg/ml, Collagen, Placebo group): 75 ± 2 arbitrary units
Platelet aggregation ([4]; SolCD39 10 μg/ml, Collagen, Ticlopidine group): 48 ± 18 arbitrary units
Platelet aggregation ([4]; SolCD39 10 μg/ml, TRAP, Abciximab group): 22 ± 10 arbitrary units
Platelet aggregation ([4]; SolCD39 10 μg/ml, TRAP, Aspirin group): 38 ± 7 arbitrary units
Platelet aggregation ([4]; SolCD39 10 μg/ml, TRAP, Clopidogrel group): 35 ± 1 arbitrary units
Platelet aggregation ([4]; SolCD39 10 μg/ml, TRAP, Placebo group): 70 ± 3 arbitrary units
Platelet aggregation ([4]; SolCD39 10 μg/ml, TRAP, Ticlopidine group): 19 ± 6 arbitrary units
Platelet aggregation ([4]; SolCD39 100 μg/ml, ADP, Abciximab group): 0 ± 0 arbitrary units
Platelet aggregation ([4]; SolCD39 100 μg/ml, ADP, Aspirin group): 1 ± 0 arbitrary units
Platelet aggregation ([4]; SolCD39 100 μg/ml, ADP, Clopidogrel group): 0 ± 0 arbitrary units
Platelet aggregation ([4]; SolCD39 100 μg/ml, ADP, Placebo group): 0 ± 0 arbitrary units
Platelet aggregation ([4]; SolCD39 100 μg/ml, ADP, Ticlopidine group): 2 ± 2 arbitrary units
Platelet aggregation ([4]; SolCD39 100 μg/ml, Collagen, Abciximab group): 0 ± 0 arbitrary units
Platelet aggregation ([4]; SolCD39 100 μg/ml, Collagen, Aspirin group): 16 ± 4 arbitrary units
Platelet aggregation ([4]; SolCD39 100 μg/ml, Collagen, Clopidogrel group): 21 ± 6 arbitrary units
Platelet aggregation ([4]; SolCD39 100 μg/ml, Collagen, Placebo group): 57 ± 5 arbitrary units
Platelet aggregation ([4]; SolCD39 100 μg/ml, Collagen, Ticlopidine group): 37 ± 15 arbitrary units
Platelet aggregation ([4]; SolCD39 100 μg/ml, TRAP, Abciximab group): 22 ± 9 arbitrary units
Platelet aggregation ([4]; SolCD39 100 μg/ml, TRAP, Aspirin group): 26 ± 5 arbitrary units
Platelet aggregation ([4]; SolCD39 100 μg/ml, TRAP, Clopidogrel group): 23 ± 3 arbitrary units
Platelet aggregation ([4]; SolCD39 100 μg/ml, TRAP, Placebo group): 65 ± 4 arbitrary units
Platelet aggregation ([4]; SolCD39 100 μg/ml, TRAP, Ticlopidine group): 18 ± 7 arbitrary units
ex vivo platelet aggregation, collagen ([5]; 2.5 μg/ml collagen): attenuated
ex vivo platelet aggregation, ADP ([5]; 10 μM ADP): abrogated
ex vivo platelet aggregation, arachidonate ([5]; 0.1 mM sodium arachidonate): attenuated
apyrase activity cleared from the circulation during distribution phase [6]: 55-65%
t1/2α (distribution phase), ADPase assay ([6]; 50 ug): 43 min
t1/2α (distribution phase), ATPase assay ([6]; 50 ug): 59 min
platelet aggregation induced by 10 μM ADP ([7]; 3.3 μg/ml solCD39, PRP from aspirin-ingesting donor): abruptly terminated
induction of platelet activation by ADP or collagen ([7]; ASA-treated PRP, 10 μM ADP (4.4 μg/ml) or collagen (22 μg/ml)): significantly inhibited
effect on collagen-induced aggregation with increasing quantity ([7]; PRP from aspirin-ingesting donor): dose dependent
platelet responsiveness to 5 μM ADP ([7]; PRP with or without 10 μM indomethacin, CM containing solCD39 from COS-1 and CHO cells): completely abrogating
platelet aggregation response to collagen ([7]; collagen 1 μg/ml, PRP): markedly reduced
